Measurements from patent US20250042956A1 (University of California, published 2025).

How the values were obtained:
[1] = biological target: T1, PIAL2 (yeast two hybrid GAL4 fusion) (Arabidopsis thaliana, UniProt F4JYG0 1-760); test: yeast two hybrid
T1 construct: cDNA cloned into Gateway Y2H vectors; not shown: GAL4-AD or GAL4-BD (pGADT7-GW / pGBKT7-GW)
T1 sequence: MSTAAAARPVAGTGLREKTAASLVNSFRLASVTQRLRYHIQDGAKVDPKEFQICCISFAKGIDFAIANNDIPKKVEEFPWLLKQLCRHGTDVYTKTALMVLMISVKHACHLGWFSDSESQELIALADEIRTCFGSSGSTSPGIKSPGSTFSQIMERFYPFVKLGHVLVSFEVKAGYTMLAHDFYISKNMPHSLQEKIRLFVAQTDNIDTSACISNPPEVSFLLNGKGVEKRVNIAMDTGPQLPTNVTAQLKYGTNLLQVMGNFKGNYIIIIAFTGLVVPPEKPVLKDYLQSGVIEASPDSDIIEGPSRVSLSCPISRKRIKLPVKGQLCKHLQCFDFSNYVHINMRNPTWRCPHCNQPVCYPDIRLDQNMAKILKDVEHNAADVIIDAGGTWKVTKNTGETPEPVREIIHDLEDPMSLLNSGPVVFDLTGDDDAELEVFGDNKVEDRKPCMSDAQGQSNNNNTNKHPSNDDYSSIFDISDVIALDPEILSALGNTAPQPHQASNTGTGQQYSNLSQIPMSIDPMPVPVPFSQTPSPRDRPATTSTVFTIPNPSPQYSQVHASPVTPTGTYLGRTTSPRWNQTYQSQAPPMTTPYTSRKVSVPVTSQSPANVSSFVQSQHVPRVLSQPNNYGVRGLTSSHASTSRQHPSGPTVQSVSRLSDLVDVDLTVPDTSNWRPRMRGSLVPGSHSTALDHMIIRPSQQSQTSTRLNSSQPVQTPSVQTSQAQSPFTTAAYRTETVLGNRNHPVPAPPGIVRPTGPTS
Description: The cDNA sequences of PIAL1, PIAL2, MOM2, MORC6, and MOM1 CMM2 domain (aa1660-aa1860, (see e.g., Han, Plant Cell Rep., 2016)) were first cloned into gateway entry vectors followed by LR reaction with pGBKT7-GW (Addgene 61703) and pGADT7-GW (Addgene 61702) destination vectors. Pairs of plasmid DNA for the desired protein interaction to be tested were co-transformed into the yeast strain AH109. Combinations of the empty pGBKT7-GW or pGADT7-GW vectors and the plasmids of desired proteins were used for transformation of yeast cells to test for self-activation. Transformed yeast cells were plated on synthetic dropout medium without Trp and Leu (SD-TL) and incubated for 2-3 days to allow for the growth of positive colonies carrying both plasmids. Three yeast colonies of each tested protein interaction pairs were picked and mixed in 150 μl 1×TE solution, and 3 μl of the 1×TE solution with the yeast cells were blotted on synthetic dropout medium without Trp, Leu, and His (SD-TLH) and with 5 mM 3-amino-1,2,4-triazole (3AT) to inhibit background growth. Growth of yeast on SD-TLH with 5 mM 3AT medium after 2-3 days of incubation indicates the interaction between the GAL4-AD fusion protein and the GAL4-BD fusion protein.

AT4G35510.1 TRBIP1 [2] = biological target: T2, AT4G35510.1 TRBIP1 (Arabidopsis thaliana); test: IP-MS rep 1
T2 construct: Endogenous protein found by mass spectrometry
T2 chain: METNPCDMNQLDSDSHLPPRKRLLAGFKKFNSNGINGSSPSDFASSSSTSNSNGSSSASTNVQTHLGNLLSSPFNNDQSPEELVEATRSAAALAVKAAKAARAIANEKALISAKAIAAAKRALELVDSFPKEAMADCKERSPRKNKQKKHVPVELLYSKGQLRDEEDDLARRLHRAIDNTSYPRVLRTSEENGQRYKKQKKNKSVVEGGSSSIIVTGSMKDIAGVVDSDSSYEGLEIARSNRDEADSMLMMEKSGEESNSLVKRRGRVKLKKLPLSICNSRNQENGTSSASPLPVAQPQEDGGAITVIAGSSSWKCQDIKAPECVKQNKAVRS
Protocol: (§1) The method of IP-MS used in this Example has been described in a recent paper (see e.g., Xue, Nat. Comm., 2021). Ten grams of unopened floral buds from Col-0 wild type and FLAG-tag transgenic plants, including PHD1, MOM1, AIPP3, MOM2, MORC6, PIAL2, TRB1, TRB2, TRB3, JMJ14, HD2A, HD2B, and ELF7 were collected and ground into fine powder with liquid nitrogen. These samples were resuspended with 25 mL IP buffer and homogenized until lump-free by dounce homogenizer. The lysate was filtered through Miracloth and incubated with 250 μL anti-FLAG M2 magnetic beads (Sigma) at 4° C. for 2 hours. The magnetic beads were washed with IP buffer and eluted with TBS containing 250 μg/mL 3×FLAG peptides. The eluted proteins were precipitated with trichloroacetic acid (Sigma) and subject to MS analyses as described previously (see e.g., Xue, Nat. Comm., 2021).

AT2G17540.2 TRBIP2 [3] = biological target: T3, AT2G17540.2 TRBIP2 (Arabidopsis thaliana); test: IP-MS rep 1
T3 construct: Endogenous protein found by mass spectrometry
T3 chain: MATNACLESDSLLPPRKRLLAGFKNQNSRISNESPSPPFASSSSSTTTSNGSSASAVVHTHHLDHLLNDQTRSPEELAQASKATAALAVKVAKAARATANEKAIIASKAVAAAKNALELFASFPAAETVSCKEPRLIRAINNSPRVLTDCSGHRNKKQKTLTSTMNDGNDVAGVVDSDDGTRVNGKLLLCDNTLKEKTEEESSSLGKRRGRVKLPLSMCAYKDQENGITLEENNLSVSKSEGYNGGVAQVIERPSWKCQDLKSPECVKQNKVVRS
Protocol: as §1

AT4G35510.1 TRBIP1 [4] = biological target: T2, AT4G35510.1 TRBIP1; test: IP-MS rep 2
Protocol: as §1

AT2G17540.2 TRBIP2 [5] = biological target: T3, AT2G17540.2 TRBIP2; test: IP-MS rep 2
Protocol: as §1

AT4G35510.1 TRBIP1 [6] = biological target: T2, AT4G35510.1 TRBIP1; test: X-link IP-MS
AT2G17540.2 TRBIP2 [7] = biological target: T3, AT2G17540.2 TRBIP2; test: X-link IP-MS

B1: MOM1 CMM2 domain (yeast two hybrid GAL4 fusion) (other, Arabidopsis thaliana, UniProt Q9M658 1660-1860, looked up)
chain: TSVAEPHISGSDACEMEISEPGPQVERSTFANLFHEGGVEHSAGVTALVPSLLNNGTEQIAVQPVPQIPFPVFNDPFLHELEKLRRESENSKKTFEEKKSILKAELERKMAEVQAEFRRKFHEVEAEHNTRTTKIEKDKNLVIMNKLLANAFLSKCTDKKVSPSGAPRGKIQQLAQRAAQVSALRNYIAPQQLQASSFPAP
notes: range 1660-1860; also called MOM1 CMM2 domain (aa1660-aa1860); not shown: GAL4-AD or GAL4-BD (pGADT7-GW / pGBKT7-GW)
- binding result [1]: binds

B2: MORC6 (yeast two hybrid GAL4 fusion) (other, Arabidopsis thaliana, UniProt Q56Y74 1-663, looked up)
chain: MSHDRSVNVSHDAVIAKPERGTMLQSFSPRSHGSKGYSLPQDSEENRGSVGQSAGQSSTSVVDQVRSPADDAGVTSSSTICPAPVCRQFWKAGSYNDELSSKSQQPNGKNYLHVHPMFLHSNATSHKWAFGAVAELLDNAVDEIQNGATFVIVDKTTNPRDGATALLIQDDGGGMDPQAMRHCMGFGFSDKKSDSAIGRYGNGFKTSTMRLGADVIVFSRHSKNQTLTQSIGLLSYTYLTRTGHDRIVVPILDYEFNASAGEFKTLQDREHFISSLSILLEWSPFSTEAELLQQFDDVGPHGTKVIIYNMWLNSDAKLELDFDSVAEDILIEGSIKKTGSKIVNDHIASRFSYSLRVYLSILYLRIPETFKIILRGKVVEHHNVADDLMHPQYILYKPQAAGSEEALVVTTIGFLKEAPKVNLHGFCVYHKNRLIMPFWQVINYSSSRGRGVVGVLEANFVEPTHNKQDFEKTVLLQKLENRLKEMTVEYWSCHCVLIGYQVNKKPRLQIPQKVQPAGRQALSPPPGFQAVFPQGNTTSLPRVSTQPVLLEKRKEHPDSVASAALKRKVGNDDFTVPGHIRVEQFIHGSASQSQDIETVKLMEENKKLRAKCLDRKVRSQNLEVKAMNLRSELENYKSEYERLMVELQALDLVKDEHRRNVNT
notes: cDNA cloned into Gateway Y2H vectors; not shown: GAL4-AD or GAL4-BD (pGADT7-GW / pGBKT7-GW)
- binding result [1]: binds

B3: FLAG-TRB3 (other, not shown: small tags and cut ends)
chain: MGAPKLKWTPEEETALKAGVLKHGTGKWRTILSDPVYSTILKSRSNVDLKDKWRNISVTALWGSRKKAKLALKRTPLSGSRQDDNATAITIVSLANGDVGGQQIDAPSPPAGSCEPPRPSTSVDKIILEAITSLKRPFGPDGKSILMYIEENFKMQPDMKRLVTSRLKYLTNVGTLVKKKHKYRISQNYMAEGEGQRSPQLLLEGNKENTPKPEENGVKNLTKSQVGGEVMIMGMTEKEAAAAAARAVAEAEFAMAEAEEAAREADKAEAEAEAAHIFAKAAMKAVKYRMHSQTR
notes: FLAG-tagged TRB3 from its native promoter; tag position under the label FLAG-TRB3 not certain; also called TRB3-FLAG; TRB-FLAG
- IP-MS count (AT4G35510.1 TRBIP1 [2]): 24
- IP-MS count (AT2G17540.2 TRBIP2 [3]): 16
- IP-MS count (AT4G35510.1 TRBIP1 [4]): 38
- IP-MS count (AT2G17540.2 TRBIP2 [5]): 20
- IP-MS count (AT4G35510.1 TRBIP1 [6]): 17
- IP-MS count (AT2G17540.2 TRBIP2 [7]): 3
